Measured values reported in article PMC9375587.

Molecular target: Myeloperoxidase (MPO), native, dimeric (human) (UniProt P05164)
Experiment: SPR

B1: Ceruloplasmin (CP), intact (non-proteolyzed) (natural protein)
chain: KEKHYYIGIIETTWDYASDHGEKKLISVDTEHSNIYLQNGPDRIGRLYKKALYLQYTDETFRTTIEKPVWLGFLGPIIKAETGDKVYVHLKNLASRPYTFHSHGITYYKEHEGAIYPDNTTDFQRADDKVYPGEQYTYMLLATEEQSPGEGDGNCVTRIYHSHIDAPKDIASGLIGPLIICKKDSLDKEKEKHIDREFVVMFSVVDENFSWYLEDNIKTYCSEPEKVDKDNEDFQESNRMYSVNGYTFGSLPGLSMCAEDRVKWYLFGMGNEVDVHAAFFHGQALTNKNYRIDTINLFPATLFDAYMVAQNPGEWMLSCQNLNHLKAGLQAFFQVQECNKSSSKDNIRGKHVRHYYIAAEEIIWNYAPSGIDIFTKENLTAPGSDSAVFFEQGTTRIGGSYKKLVYREYTDASFTNRKERGPEEEHLGILGPVIWAEVGDTIRVTFHNKGAYPLSIEPIGVRFNKNNEGTYYSPNYNPQSRSVPPSASHVAPTETFTYEWTVPKEVGPTNADPVCLAKMYYSAVEPTKDIFTGLIGPMKICKKGSLHANGRQKDVDKEFYLFPTVFDENESLLLEDNIRMFTTAPDQVDKEDEDFQESNKMHSMNGFMYGNQPGLTMCKGDSVVWYLFSAGNEADVHGIYFSGNTYLWRGERRDTANLFPQTSLTLHMWPDTEGTFNVECLTTDHYTGGMKQKYTVNQCRRQSEDSTFYLGERTYYIAAVEVEWDYSPQREWEKELHHLQEQNVSNAFLDKGEFYIGSKYKKVVYRQYTDSTFRVPVERKAEEEHLGILGPQLHADVGDKVKIIFKNMATRPYSIHAHGVQTESSTVTPTLPGETLTYVWKIPERSGAGTEDSACIPWAYYSTVDQVKDLYSGLIGPLIVCRRPYLKVFNPRRKLEFALLFLVFDENESWYLDDNIKTYSDHPEKVNKDDEEFIESNKMHAINGRMFGNLQGLTMHVGDEVNWYLMGMGNEIDLHTVHFHGHSFQYKHRGVYSSDVFDIFPGTYQTLEMFPRTPGIWLLHCHVTDHIHAGMETTYTVLQNEDTKSG
Kd: 436 nM
koff: 0.503 s⁻¹
kon: 11500 M⁻¹ s⁻¹
